Experimental data reported in PMC3293900, “Single Cycle Structure-Based Humanization of an Anti-Nerve Growth Factor Therapeutic Antibody” (PLoS ONE, 2012).

B1: rat anti-NGF monoclonal antibody (mAb) αD11 (antibody, V domains shown)
VH: QVQLKESGPGLVQPSQTLSLTCTVSGFSLTNNNVNWVRQATGRGLEWMGGVWAGGATDYNSALKSRLTITRDTSKSQVFLKMHSLQSEDTATYYCARDGGYSSSTLYAMDAWGQGTTVTVSA
VL: DIQMTQSPASLSASLGETVTIECRASEDIYNALAWYQQKPGKSPQLLIYNTDTLHTGVPSRFSGSGSGTQYSLKINSLQSEDVASYFCQHYFHYPRTFGGGTKLELK
notes: VH of rat αD11; rat heavy chain constant region; the CH1 part is in PDB 1ZAN (Fab); light chain of rat αD11; whole light chain in PDB 1ZAN (Fab αD11); Whole rat IgG; also called parental mAb αD11; rat αD11
B2: Fab fragment of the humanized anti-NGF antibody hum-αD11 (Fab, V domains shown)
VH: EVQLVESGGGLVQPGGSLRLSCAASGFSLTNNNVNWVRQAPGKGLEWVGGVWAGGATDYNSALKSRFTISRDNSKNTAYLQMNSLRAEDTAVYYCARDGGYSSSTLYAMDAWGQGTLVTVSS
VL: DIQMTQSPSSLSASVGDRVTITCRASEDIYNALAWYQQKPGKAPKLLIYNTDTLHTGVPSRFSGSGSGTDYTLTISSLQPEDFATYFCQHYFHYPRTFGQGTKVEIK
notes: as the VH of m3 (hum-αD11 VH); constant part of the Fab heavy chain; not described for the Fab provided by PanGenetics; as the Vκ of m3 (hum-αD11 Vκ); positions L46 and L87 mutated to the rat αD11 residue, Kabat numbering; constant part of the Fab light chain; also called Fab hum-αD11; source: kindly provided by PanGenetics UK Ltd

Assays:
[1] = target: T1, human Nerve Growth Factor (Homo sapiens, UniProt P01138); experiment: SPR; BIACore; rat mAb αD11 amine-coupled on CM5 chips (1025, 1040, 1280 RU); hNGF 0.29-37.5 nM injected in PBS with 0.005% Surfactant P20, 30 µl/min; triplicate; apparent constants; conditions: both partners purified
T1 construct: human Nerve Growth Factor (beta-NGF), mature growth factor; also called hNGF; human NGF; source: obtained according to Covaceuszach et al. [77]

[2] = target: T1, human Nerve Growth Factor; experiment: SPR; BIACore; hNGF amine-coupled on CM5 chips (89, 93, 100 RU); Fab hum-αD11 0.39-25 nM injected in HBSEP pH 7.4 with 100 µg/ml BSA, 50 µl/min; triplicate; apparent constants; conditions: both partners purified

T1 sequence (P01138 122-241): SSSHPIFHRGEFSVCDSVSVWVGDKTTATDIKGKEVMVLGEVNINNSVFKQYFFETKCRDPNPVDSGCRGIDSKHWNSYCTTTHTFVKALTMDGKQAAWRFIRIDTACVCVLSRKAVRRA

Row | Binder | Ka [1] [M⁻¹] | Kd [1] [nM] | Ka [2] [M⁻¹] | Kd [2] [nM]
1 | B1 | 2.21e+09 | 0.451 ± 0.045 | – | –
2 | B2 | – | – | 3.4e+10 | 0.0289 ± 0.0041
